In the supplement of paper PMC9170038:

Tested on: MS2 coat protein
Test: apparent KD of MS2 coat protein; designed switch direction (-1 OFF switch, 1 ON switch): 1; higher = weaker reporter binding
Method in brief: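 Each step of the titration lasted 0.8–1.5 h at the lowest concentration and 10–20 min at the highest. The protein, SNAP-549-labelled MS2 coat protein, went from 0.7 or 1.5 nM doubling to 3 µM over RNA switches transcribed on Illumina chips by stalled E. coli RNA polymerase. Normalised cluster fluorescence was curve-fitted, and the per-design median over clusters is given as apparent KD.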

[1] = Eterna round: R95, input ligand: FMN 200 uM
[2] = Eterna round: R95, input ligand: microRNA oligo, concentration not stated
[3] = Eterna round: R95, input ligand: none
[4] = input ligand: microRNA oligo, concentration not stated

Row | Sequence | apparent KD of MS2 coat protein [1] | apparent KD of MS2 coat protein [2] | apparent KD of MS2 coat protein [3] | apparent KD of MS2 coat protein (input ligand: FMN 200 uM) | apparent KD of MS2 coat protein [4] | apparent KD of MS2 coat protein (input ligand: none)
1 | AUAAGUUCGAUGCUCGUCUCUCCGUACAAACAUGAGGAUCACCCAUGUGAUCGGGAAGUAGCCCGGUCAGUAUGGCC [Ordierti] (puzzle: Sensor for hsa-mir-208a) | 0.0351 µM | 0.0244 µM | 0.0385 µM |  |  | 
2 | UGGUACAUGGGAGGAUAUCAUGUAGAAACAUGAGGAUCACCCAUGUAGAUGGCAGCUUUGCUGAAUGAGAAGGCCCAUGUACCU [JL SSNG1 3.58] (Eterna round: R96, puzzle: Same State NG 2) |  |  |  | 0.0156 µM | 0.0189 µM | 0.0228 µM
3 | AUUUUUAAUGCAGGAUAUGAUUAACAUGAGGAUCACCCAUGUGGUGUUGUGAGUAAGGAGAGUGAUCAGAAGGGCAUUUUUUAU [JMF's solution 86] (Eterna round: R96, puzzle: Same State NG 2) |  |  |  | 0.453 µM | 0.702 µM | 0.441 µM
4 | AUUUUCAAUGCAGGAUAUGAUUAACAUGAGGAUCACCCAUGUGGUGUUGUGAGUAAGGAGAGUGAUCAGAAGGGCAUUUUUUUU [JMF's solution 97] (Eterna round: R96, puzzle: Same State NG 2) |  |  |  | 0.428 µM | 0.371 µM | 0.486 µM
5 | GGUCCAGCCUGAGCUGGACAAAAGCAUGUACAUGAGGAUCACCCAUGUUCAUGUACAAGCUUUUUGCUCGUCUUACU [salish99_208a_r3_085] (puzzle: Sensor for hsa-mir-208a) | 0.681 µM | 0.015 µM | 0.553 µM |  |  | 
6 | UCAAGGUUUUUGCUCGUUUUAUGUGUUGAACAUGAGGAUCACCCAUGUAUUGUACGAUCCAGUUAGAUGGUGGUUUG [JR_SHM208A_Sub042] (puzzle: Sensor for hsa-mir-208a) | 0.0874 µM | 0.0781 µM | 0.132 µM |  |  | 
7 | GGUCCAGCCUGAGCUGGACCGAAGCAUGUACAUGAGGAUCACCCAUGUCAUGUACAAGCUUUUUGCUCGUCUUAUUG [JL-shm-2.09 JL Mod] (puzzle: Sensor for hsa-mir-208a) | 0.307 µM | 0.0149 µM | 0.285 µM |  |  | 
8 | UUUAUAUUCAGAGGAUAUUGAUGUUGUAUUUUACAAGAAGGCUGUUUGUUUUGUAAUGUUAUUAUACAUGAGGAUCACCCAUGU [JR_SSNG1_Sub015] (Eterna round: R96, puzzle: Same State NG 1) |  |  |  |  | 0.0168 µM | 
9 | UCAAGCGAGAGGCUCGUCUUAUGCAAGGAACAUGAGGAUCACCCAUGUGAGGGACGAUUGAGUUAGAUGGAAUGGAG [JR_SHM208A_Sub032] (puzzle: Sensor for hsa-mir-208a) | 0.0299 µM | 0.136 µM | 0.0335 µM |  |  | 
10 | GACCGCGAGGGAGGAUAUGGAGCCUUAUUGGCUCCAGAAGGUCCAUAAGGGACAUGAGGAUCACCCAUGUGGGUUGAAGCGGUC [Fiskers NG1ss - 36] (Eterna round: R96, puzzle: Same State NG 1) |  |  |  |  | 0.108 µM | 
11 | UUUGGGUGGCUGGAGGAUAUUCUUGUGGUUACAUGAGGAUCACCCAUGUGUCGCGCGGUGCGCGAGGAGAAGGCUGGCGGCCGUU (puzzle: Same State 2) |  | 0.186 µM |  |  |  | 
12 | UGGUACAUGGGAGGAUAUGGGCAAGAGACAUGAGGAUCACCCAUGUAUUAAAAGCCGAAAGGCAUCUAGAAGGCCCAUGUACCU [JL SSNG1 3.86] (Eterna round: R96, puzzle: Same State NG 2) |  |  |  | 0.0133 µM | 0.0559 µM | 0.0867 µM
13 | CCUUAACAGUGAGGAUAUCGUUGCGAUAAGUGACGAGAAGGCACUCAUGUGAAAUAAACAUACAUGAGGAUCACCCAUGUUGUG [Omei SS(NG)1 Bv5] (Eterna round: R96, puzzle: Same State NG 1) |  |  |  | 0.0344 µM | 0.04 µM | 0.0442 µM
14 | GUGGUCAGACAUGAGGAUCACCCAUGUGGAAUAAAUAACAACUAGGAUAUAUAAUAUAGGAUAUAAUAGAAGGAGUGAUUGGUG (Eterna round: R96, puzzle: Same State NG 3) |  |  |  |  | 0.121 µM | 
15 | UUGAAUAAUUAAGGAUAUCGAGUACAUAUGUUAAACAUGAGGAUCACCCAUGUGGGUUGCGGUAUCGAGAAGGUAAAAGAAAAG [Mat - Same State NG 2 - JL mod - D60] (Eterna round: R96, puzzle: Same State NG 2) |  |  |  | 0.0326 µM | 0.0219 µM | 0.0358 µM
16 | UUACUCCCUACAUGAGGAUCACCCAUGUUUUACAAACCCAACGAGGAUAUGUUGAGCGGAUGUAAGCAGAAGGCGUAGGGUAGA [Eternabot solution 37] (Eterna round: R96, puzzle: Same State NG 3) |  |  |  | 0.143 µM | 0.0167 µM | 0.04 µM

Row | Sequence | apparent KD of MS2 coat protein [1] | apparent KD of MS2 coat protein [2] | apparent KD of MS2 coat protein [3] | apparent KD of MS2 coat protein (input ligand: FMN 200 uM) | apparent KD of MS2 coat protein [4] | apparent KD of MS2 coat protein (input ligand: none)
17 | CAGAGCCCAUGGGCCUGACAUGAGGAUCACCCAUGUGGCUUUGAGGAUAUAAGCGGAAACACCACUUAGAAGGCGAAGCCUAAC [Bequedbi] (Eterna round: R96, puzzle: Same State NG 3) |  |  |  | 0.489 µM | 0.0371 µM | 0.0113 µM
18 | GGAAUAUUUACAGGAUAUCAUUUGUAAAUUCGAUGAGAAGGGUAGAUGUCUUACACGACGUGUUACAUGAGGAUCACCCAUGUU [SameState NG1 #7] (Eterna round: R96, puzzle: Same State NG 1) |  |  |  | 0.146 µM | 0.142 µM | 0.145 µM
19 | GUAGCAUACCGAGGAUAUUCAUAUACAUGAGGAUCACCCAUGUUUAUAGGCCGAUUACGGCCUUGGGAGAAGGCGGAAUGCUAC [Xeonanis - 20 Mod25] (Eterna round: R96, puzzle: Same State NG 2) |  |  |  | 0.0117 µM | 0.00952 µM | 0.0176 µM
20 | UGGAUCUAGGCUUGCCUGGGUCCAUGCUGACAUGAGGAUCACCCAUGUGCAUCCUACAAGCUUUUUGCUUGUCUGUC (Eterna round: R96, puzzle: Sensor for hsa-mir-208a) |  |  |  | 0.384 µM | 0.607 µM | 0.53 µM
21 | UGUUGUUAAUUAGGAUAUGGGCACAUGAGGAUCACCCAUGUAUUUUCGAUGCUAUGUGGAGACGUCUAGAAGGGAUGGCUAACA [SameState NG2 #88] (Eterna round: R96, puzzle: Same State NG 2) |  |  |  | 0.254 µM | 0.151 µM | 0.158 µM
22 | CUGCUCGUGUGAGGAUAUGCCGCCGUUUCGGCUGCAGAAGGUGCUACGUAACAUGAGGAUCACCCAUGUCUCUGUUGUUUCGUU [salish99_SSNG1_r04_949] (Eterna round: R96, puzzle: Same State NG 1) |  |  |  | 0.0374 µM | 0.0352 µM | 0.034 µM
23 | GUGGCCCAGGCACAGGAUAUGUUUCUCGUAACAUGAGGAUCACCCAUGUGCCUAUGAGAUUUUUUGCAGAAGGGUGCACGCCACG [JL Atiinbe mod 02] (puzzle: Same State 2) |  | 0.134 µM |  |  |  | 
24 | UAUGAAUAGCAAGGAUAUUGAUAACAUGAGGAUCACCCAUGUAAUUGAUCGAGUUAGAUCAGUUACAAGAAGGUGCAAUUGAUU [JR_SSNG2_Sub035] (Eterna round: R96, puzzle: Same State NG 2) |  |  |  |  | 0.0194 µM | 
25 | CCGUAAUAUGGAGGAUAUGGAGCCUUAUUGGCUCCAGAAGGUCAUAAAACAUGAGGAUCACCCAUGUCGGCGGUCAAUAGACCG [Eli NG1ss - 77] (Eterna round: R96, puzzle: Same State NG 1) |  |  |  |  | 0.0426 µM | 
26 | GCUCGAUGUGCUGUUUACAUGAGGAUCACCCAUGUAGAUGCGGAGGAUAUCUACGUGCUUUAUGUAGAGAAGGUCGUAUCGAGC [SameState NG3 #83] (Eterna round: R96, puzzle: Same State NG 3) |  |  |  | 0.0334 µM | 0.0412 µM | 0.0608 µM
27 | UGGUACAUGGGAGGAUAUCAUGUAGAGACAUGAGGAUCACCCAUGUAGAUGGCCGGUAACCGGGAUGAGAAGGCCCAUGUACCU [JL SSNG1 3.65] (Eterna round: R96, puzzle: Same State NG 2) |  |  |  | 0.161 µM | 0.0563 µM | 0.151 µM
28 | GCGAAAUGAUGUGACAUGAGGAUCACCCAUGUAACCUCAUGUAAGGAUAUCGGAAAAAAAAAAACCGAGAAGGUAUGGUCACGC [AK SSNG3-V2-27.1] (Eterna round: R96, puzzle: Same State NG 3) |  |  |  | 0.124 µM | 0.0864 µM | 0.216 µM
29 | GUACAUAUCAGAGGAUAUCACGUCGUUUAGACGUGAGAAGGCUGAUCACACAUGAAUAUUAAUACAUGAGGAUCACCCAUGUAC [SSNG1/13-A3] (Eterna round: R96, puzzle: Same State NG 1) |  |  |  | 0.0238 µM | 0.0312 µM | 0.0327 µM
30 | CGCCGACAUGAGGAUCACCCAUGUGAGCGACUCACAGGAUAUACGCGAUAACAACUUCGCGUAGAAGGGUGCUCCU [Esvezaza] (puzzle: Same State 1) | 0.0144 µM | 0.0122 µM | 0.0144 µM |  |  | 
31 | UAGAGAGGAAGCGAGGAUAUCGUGUGAGGAACAUGAGGAUCACCCAUGUGUGAUGUUGAGAGAGACGAGAAGGCGCAGGAAAUUA [JR_SS2_Sub082] (puzzle: Same State 2) |  | 0.116 µM |  |  |  | 
32 | GUAGCAUACCGAGGAUAUUCAUAUUAUAACAUGAGGAUCACCCAUGUAGGUCGAUUACGACCUUGGGAGAAGGCGGAAUGCUAC [Xeonanis - 20 Mod35] (Eterna round: R96, puzzle: Same State NG 2) |  |  |  | 0.0347 µM | 0.307 µM | 0.21 µM
